B1: Protein PTHB1 (Homo sapiens), Q3SYG4 (parent)
chain: MSLFKARDWWSTILGDKEEFDQGCLCLANVDNSGNGQDKIIVGSFMGYLRIFSPHPAKTGDGAQAEDLLLEVDLRDPVLQVEVGKFVSGTEMLHLAVLHSRKLCVYSVSGTLGNVEHGNQCQMKLMYEHNLQRTACNMTYGSFGGVKGRDLICIQSMDGMLMVFEQESYAFGRFLPGFLLPGPLAYSSRTDSFLTVSSCQQVESYKYQVLAFATDADKRQETEQQKLGSGKRLVVDWTLNIGEQALDICIVSFNQSASSVFVLGERNFFCLKDNGQIRFMKKLDWSPSCFLPYCSVSEGTINTLIGNHNNMLHIYQDVTLKWATQLPHIPVAVRVGCLHDLKGVIVTLSDDGHLQCSYLGTDPSLFQAPNVQSRELNYDELDVEMKELQKIIKDVNKSQGVWPMTEREDDLNVSVVVSPNFDSVSQATDVEVGTDLVPSVTVKVTLQNRVILQKAKLSVYVQPPLELTCDQFTFEFMTPDLTRTVSFSVYLKRSYTPSELEGNAVVSYSRPTDRNPDGIPRVIQCKFRLPLKLICLPGQPSKTASHKITIDTNKSPVSLLSLFPGFASQSDDDQVNVMGFHFLGGARITVLASKTSQRYRIQSEQFEDLWLITNELILRLQEYFEKQGVKDFACSFSGSIPLQEYFELIDHHFELRINGEKLEELLSERAVQFRAIQRRLLARFKDKTPAPLQHLDTLLDGTYKQVIALADAVEENQGNLFQSFTRLKSATHLVILLIALWQKLSADQVAILEAAFLPLQEDTQELGWEETVDAAISHLLKTCLSKSSKEQALNLNSQLNIPKDTSQLKKHITLLCDRLSKGGRLCLSTDAAAPQTMVMPGGCTTIPESDLEERSVEQDSTELFTNHRHLTAETPRPEVSPLQGVSE
partner: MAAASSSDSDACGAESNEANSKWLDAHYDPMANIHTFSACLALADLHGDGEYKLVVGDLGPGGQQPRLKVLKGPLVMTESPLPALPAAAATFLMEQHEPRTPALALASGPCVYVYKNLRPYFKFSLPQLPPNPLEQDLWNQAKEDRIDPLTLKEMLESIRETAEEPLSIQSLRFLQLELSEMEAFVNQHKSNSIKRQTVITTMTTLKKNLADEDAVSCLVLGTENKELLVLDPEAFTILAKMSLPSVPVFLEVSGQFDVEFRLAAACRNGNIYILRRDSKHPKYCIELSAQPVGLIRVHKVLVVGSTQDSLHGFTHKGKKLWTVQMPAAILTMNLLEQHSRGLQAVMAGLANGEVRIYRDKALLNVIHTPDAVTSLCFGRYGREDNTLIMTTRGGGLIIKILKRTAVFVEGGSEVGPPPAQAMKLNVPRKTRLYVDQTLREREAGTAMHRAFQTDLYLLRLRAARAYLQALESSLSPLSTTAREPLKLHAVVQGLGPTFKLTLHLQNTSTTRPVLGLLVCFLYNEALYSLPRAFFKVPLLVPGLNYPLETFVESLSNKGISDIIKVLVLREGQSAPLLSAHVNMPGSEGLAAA

Variants of: B1
Conditions: with bbs1_human BBS1, Q8NFJ9

Row | Variant | effect of a mutation on the interaction
1 | L529K | with no effect
2 | L529E | with no effect
3 | S507K | with no effect
4 | S507E | with no effect
5 | I534K | with no effect
6 | R521A | with no effect
7 | R521K | with no effect
8 | I550E | with no effect
9 | P530A | with no effect
10 | I588A | with no effect
11 | S541A | with no effect
12 | T441K | with no effect
13 | T441E | with no effect
14 | T441A | with no effect
15 | T595A | with no effect
16 | S561K | with no effect
17 | E607V | disrupting interaction strength
18 | L467E | with no effect
19 | V417A | with no effect
20 | L591K | with no effect
21 | A455K | with no effect
22 | Q462K | with no effect
23 | F474E | with no effect

Row | Variant | effect of a mutation on the interaction
24 | T428K | with no effect
25 | T428E | with no effect
26 | I523A | with no effect
27 | F566E | with no effect
28 | R510E | with no effect
29 | L452K | with no effect
30 | L452A | with no effect
31 | R598E | with no effect
32 | D409K | with no effect
33 | P479A | with no effect
34 | P537E | with no effect
35 | L562A | with no effect
36 | K542A | with no effect
37 | L500K | with no effect
38 | T552E | with no effect
39 | Q539E | with no effect
40 | Q539A | with no effect
41 | F580K | with no effect
42 | C535A | with no effect
43 | S414A | with no effect
44 | S568E | with no effect
45 | E475K | with no effect
46 | F421K | with no effect

Row | Variant | effect of a mutation on the interaction
47 | C525E | with no effect
48 | Q569A | with no effect
49 | F472E | with no effect
50 | F472K | with no effect
51 | S494E | with no effect
52 | N614K | with no effect
53 | S593E | with no effect
54 | S593K | with no effect
55 | S418E | with no effect
56 | S418K | with no effect
57 | D513E | with no effect
58 | T473K | with no effect
59 | V461K | with no effect
60 | T405E | with no effect
61 | V522A | with no effect
62 | V432E | disrupting interaction strength
63 | P520K | with no effect
64 | L560E | with no effect
65 | E466K | with no effect
66 | I601K | with no effect
67 | S509E | with no effect
68 | S509A | with no effect
69 | I519K | with no effect

Row | Variant | effect of a mutation on the interaction
70 | V505A | with no effect
71 | K594A | with no effect
72 | N503A | with no effect
73 | N503E | with no effect
74 | L436E | with no effect
75 | T445E | with no effect
76 | T445A | with no effect
77 | S596A | with no effect
78 | S488K | with no effect
79 | D517K | with no effect
80 | D608K | with no effect
81 | Y508E | with no effect
82 | L411E | with no effect
83 | L411K | with no effect
84 | T484E | with no effect
85 | F527A | with no effect
86 | V577K | with no effect
87 | V424K | with no effect
88 | V424E | with no effect
89 | L531E | with no effect
90 | P511E | with no effect

Now from value to variant:

Row | effect of a mutation on the interaction | Variant
91 | with no effect | P758E
92 | disrupting interaction strength | E770K
93 | with no effect | L863A
94 | with no effect | L720K
95 | with no effect | L815E
96 | with no effect | E761A
97 | with no effect | A682E
98 | disrupting interaction strength | A792E
99 | with no effect | S860K
100 | with no effect | E668A
101 | with no effect | L665E
102 | with no effect | S806K
103 | with no effect | Q705E
104 | with no effect | K803A
105 | with no effect | K803E
106 | with no effect | G841K
107 | disrupting interaction strength | G841E
108 | with no effect | G701A
109 | disrupting interaction strength | G701E
110 | with no effect | S855E
111 | with no effect | L695E
112 | with no effect | H694A
113 | with no effect | P802E

Row | effect of a mutation on the interaction | Variant
114 | with no effect | Q627K
115 | disrupting interaction strength | H778E
116 | with no effect | R679E
117 | with no effect | R674K
118 | with no effect | Q672K
119 | with no effect | F673E
120 | with no effect | P641K
121 | disrupting interaction strength | C634S
122 | with no effect | W768A
123 | with no effect | Y703K
124 | with no effect | G718E
125 | with no effect | T731A
126 | with no effect | Q722E
127 | with no effect | V885E
128 | with no effect | K743E
129 | with no effect | E769A
130 | with no effect | E615K
131 | with no effect | P691E
132 | with no effect | L799E
133 | with no effect | E647A
134 | with no effect | E647K
135 | with no effect | L784A
136 | with no effect | F646E

Row | effect of a mutation on the interaction | Variant
137 | with no effect | F646K
138 | with no effect | L780E
139 | with no effect | L616A
140 | with no effect | D817K
141 | with no effect | D817E
142 | with no effect | S785K
143 | with no effect | S785E
144 | with no effect | L727A
145 | with no effect | F632A
146 | with no effect | Q677E
147 | with no effect | Q677K
148 | with no effect | R656K
149 | with no effect | L699E
150 | with no effect | E622A
151 | with no effect | F684K
152 | disrupting interaction strength | T771S
153 | with no effect | G842A
154 | with no effect | L882A
155 | with no effect | L642K
156 | with no effect | R619K
157 | with no effect | R619E
158 | with no effect | P881A
159 | disrupting interaction strength | V749E

Row | effect of a mutation on the interaction | Variant
160 | disrupting interaction strength | E753K
161 | with no effect | R818A
162 | disrupting interaction strength | M837V
163 | with no effect | P834A
164 | with no effect | S787A
165 | disrupting interaction strength | S723A
166 | with no effect | T865E
167 | with no effect | E765A
168 | with no effect | L793E
169 | with no effect | I707A
170 | with no effect | V856K
171 | with no effect | G628A
172 | with no effect | E714K
173 | with no effect | T805E
174 | with no effect | N658A
175 | with no effect | L648A
176 | with no effect | E878K
177 | with no effect | S777A
178 | with no effect | Q764A
179 | with no effect | I617A
180 | with no effect | E654K
181 | with no effect | E644K
